Results taken from US20250332300A1 (priority 2024, published 2025).
One block for each molecule: values may come before it. Positions of bridges follow the written chain, without caps; N, C: chain ends. Non-standard residues stand in square brackets, D forms with d. *: point of attachment. X4 = 4‑(carboxymethyl)piperazine‑1‑carbonyl, O=C(O)CN1CCN(C(=O)*)CC1; DOTA = O=C(O)CN1CCN(CC(=O)O)CCN(CC(=O)*)CCN(CC(=O)O)CC1; Trp(5-OH) = N[C@@H](Cc1c[nH]c2ccc(O)cc12)C(=O)O; NMePhe(4-F) = CN[C@@H](Cc1ccc(F)cc1)C(=O)O; NMehPhe = CN[C@@H](CCc1ccccc1)C(=O)O; Aad = N[C@@H](CCCC(=O)O)C(=O)O; aThr = C[C@H](O)[C@H](N)C(=O)O; NMeK = CN[C@@H](CCCCN)C(=O)O; NMeDap = CN[C@@H](CN)C(=O)O; NMeC = CN[C@@H](CS)C(=O)O; NMeS = CN[C@@H](CO)C(=O)O; CproG = not defined here; Dap = NC[C@H](N)C(=O)O

Experiments:
human HER2 (23-652) [1] = target: T1, human HER2 (23-652) (Homo sapiens, UniProt P04626); test: TR-FRET competition assay for peptide potency, human HER2; type: binding; design: towards human HER2 (23-652) and mouse HER2 (23-653); made in house; host or cells: mammalian cells; details: read-out: huHER2 TR-FRET IC50
mouse HER2 (23-653) [2] = target: T2, mouse HER2 (23-653) (Mus musculus, UniProt P70424); test: TR-FRET competition assay for peptide potency, mouse HER2; type: binding; design: mouse HER2 (23-653) using a Cy5 labeled peptide as a probe; made in house; host or cells: mammalian cells; details: TR-FRET competition with Cy5 labeled peptide probe, 0.1 nM mouse HER2, 24 h incubation; read-out: moHER2 TR-FRET IC50
T2 sequence (P70424 23-653): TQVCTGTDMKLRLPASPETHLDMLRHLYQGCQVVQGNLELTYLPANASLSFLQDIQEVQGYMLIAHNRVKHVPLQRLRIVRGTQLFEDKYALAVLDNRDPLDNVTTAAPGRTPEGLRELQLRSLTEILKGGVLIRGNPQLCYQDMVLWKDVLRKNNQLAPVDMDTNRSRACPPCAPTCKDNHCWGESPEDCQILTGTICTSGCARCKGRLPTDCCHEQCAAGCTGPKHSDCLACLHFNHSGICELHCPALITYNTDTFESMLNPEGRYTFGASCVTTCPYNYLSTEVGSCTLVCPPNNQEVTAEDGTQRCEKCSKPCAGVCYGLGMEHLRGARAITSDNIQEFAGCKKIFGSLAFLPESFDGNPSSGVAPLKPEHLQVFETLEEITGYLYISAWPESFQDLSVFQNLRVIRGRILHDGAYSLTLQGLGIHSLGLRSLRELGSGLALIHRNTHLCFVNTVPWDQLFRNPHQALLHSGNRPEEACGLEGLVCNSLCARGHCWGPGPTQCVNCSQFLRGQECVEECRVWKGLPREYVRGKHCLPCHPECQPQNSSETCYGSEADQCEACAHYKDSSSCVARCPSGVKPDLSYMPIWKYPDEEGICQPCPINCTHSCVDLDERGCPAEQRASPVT

mouse HER2 (23-653) [3] = target: T2, mouse HER2 (23-653); test: Surface plasmon resonance (SPR) for assessment of peptide affinity, mouse HER2; type: binding; details: SPR, mouse HER2 extracellular domain, 25° C., 1:1 binding model; read-out: moHER2-SPR-ONC KD
Source text: Each protein was immobilized either onto a SA sensorchip (Cytiva, BR-1005-31) or CM5 sensorchip (Cytiva, BR-1005-30) to a density of 800-2000 RU.

human HER2 (23-652) [4] = target: T1, human HER2 (23-652); test: Surface plasmon resonance (SPR) for assessment of peptide affinity, human HER2; type: binding; details: SPR, human HER2 extracellular domain, 25° C., 1:1 binding model; read-out: huHER2-SPR-ONC KD
Description: Each protein was immobilized either onto a SA sensorchip (Cytiva, BR-1005-31) or CM5 sensorchip (Cytiva, BR-1005-30) to a density of 800-2000 RU. […] For the assay setup the same conditions (flow rate, running buffer, peptide dilution) as described above were used. In a first step the Anti Fc IgG Ab (from Human Antibody Capture Kit, Ref. 29234600, Cytiva) was diluted into acetate pH 5.0 at 25 ug/mL and immobilized at a flow rate of 10 uL/min over 360 s to reach a density around 6000 RU. […] The peptides were tested with an association time of 280 s followed by a dissociation time of 3000 s at a flow rate of 30 uL/min. The regeneration was done using 3 M magnesium chloride regeneration solution as obtained with a contact time of 30 s at a flow rate of 10 uL/min. Curve fitting was performed using the BiacoreTM 8K evaluation software.

[5] = type: physicochemical
Description: Radio-HPLC Analytical Method: Eluent A: Water+0.1% TFA; Eluent B: ACN+0.1% TFA; Column temperature: 25° C.; Flow: 1.0 mL/min; Column: […] Gradient: hold 10% B for 1 min, from 10 to 80% B in 8 min, hold 80% B for 2 min, from 80 to 15% B in 1 min. The initial radiochemical purity of [^68Ga]Ga-labeled compounds was analyzed by radio-HPLC and the stability in solution at 24° C. was evaluated 4 h after the end of synthesis by radio-HPLC.

[6] = test system: subcutaneous JimT1 tumors; design: species or system Nu (NCr)-Foxnlnu-homozygous mice; details: mouse, in vivo, iv
Description: Biodistribution studies were performed at Minerva Imaging. All animal experimentation was carried out under a license approved by the National Animal Experiments Inspectorate under the Ministry of Environment and Food of Denmark, and further approved by the Novartis Animal Welfare Office. Biodistribution studies were performed in Nu (NCr)-Foxnlnu-homozygous mice bearing subcutaneous JimT1 tumors. Mice were subcutaneously implanted with 2×10^6 JimT1 cells into right flank. The biodistribution studies were typically performed when tumors were approximately 200 mm^3 in volume. Compounds according to Examples H1 and H2 were prepared as described in the radiochemistry part (Section 9). Animals were single dose administered with an activity concentration of 4 MBq/nmol per animal. The biodistribution of the compounds was assessed using conventional ex vivo biodistribution at different time points (1, 4, 24 and 72 hrs) after intravenous injection of Lu-177 labelled compounds. Mice were euthanized and organs were collected, weighed, and placed inside counting vials. Organ uptake was assessed by gamma counting using an automated gamma counter for 60 seconds immediately after tissue collection. Tissue counts and injected doses for individual animals were decay-corrected to the time of injection. […] Results expressed as a percentage of injected dose per gram of the tissue (% ID/g).

[7] = target: mouse HER2 (23-653), biotinylated, His tag, Avi tag (mouse) (UniProt P70424); test: SPR, HER2 on chip, 25 C
mouse HER2 (23-653), biotinylated, His tag, Avi tag (mouse), sequence (P70424 23-653 limits assumed): as the sequence (P70424 23-653) above

[8] = target: human HER2 (23-652), biotinylated, His tag, Avi tag (human) (UniProt P04626); test: TR-FRET competition vs Cy5 peptide probe; TR-FRET competition, IC50
[9] = target: T3, mouse HER2 (23-653), biotinylated, His tag, Avi tag (mouse, UniProt P70424 23-653, biotin (Avi tag)); test: TR-FRET competition vs Cy5 peptide probe
T3 construct: range 23-653; in-house protein expressed in mammalian cells; also called moHER2; not shown: His tag and Avi tag, said to be at the N-terminus for the TR-FRET protein
T3 sequence (P70424 23-653 limits assumed): as the sequence (P70424 23-653) above

[10] = target: T4, human HER2 (23-652), biotinylated, His tag, Avi tag (human, UniProt P04626 23-652, biotin (Avi tag)); test: TR-FRET competition vs Cy5 peptide probe
T4 construct: range 23-652; TR-FRET used the in-house 23-652 protein; also called huHER2; human epidermal growth factor receptor 2; not shown: His tag and Avi tag, said to be at the N-terminus for the TR-FRET protein

[11] = target: T3, mouse HER2 (23-653), biotinylated, His …; test: SPR, HER2 on chip, 25 C
[12] = target: T4, human HER2 (23-652), biotinylated, His …; test: SPR, HER2 on chip, 25 C

Molecule: CC(=O)NCCCC[C@H]1C(=O)N[C@@H](Cc2c[nH]c3ccc(O)cc23)C(=O)N[C@@H](Cc2c[nH]c3ccccc23)C(=O)N[C@@H](C2CC2)C(=O)N(C)[C@H](C(=O)N(C)[C@@H](Cc2ccc(F)cc2)C(=O)N[C@@H](CCCCNC(=O)c2ccc([N+](C)(C)C)nc2)C(N)=O)CNC(=O)CCC[C@H](NC(C)=O)C(=O)N[C@@H](Cc2ccc(O)cc2)C(=O)N[C@@H](CO)C(=O)N(C)[C@@H](CCc2ccccc2)C(=O)N1C [Example F2]
IC50 (human HER2 (23-652) [1]): < 0.1 nM
IC50 (mouse HER2 (23-653) [2]): 0.2 nM
Kd (mouse HER2 (23-653) [3]): < 0.1 nM
Kd (human HER2 (23-652) [4]): < 0.1 nM

Molecule: COCCOCCOCCOCCOCCOCCOCCOCCOCCOCCOCCOCCC(=O)N[C@H]1CCCC(=O)NC[C@@H](C(=O)N(C)[C@@H](Cc2ccc(F)cc2)C(=O)N[C@@H](CCCCNC(=O)CN2CCN(CC(=O)O)CCN(CC(=O)O)CCN(CC(=O)O)CC2)C(N)=O)N(C)C(=O)[C@H](C2CC2)NC(=O)[C@H](Cc2c[nH]c3ccccc23)NC(=O)[C@H](Cc2c[nH]c3ccc(O)cc23)NC(=O)[C@H](CCCCNC(C)=O)N(C)C(=O)[C@H](CCc2ccccc2)N(C)C(=O)[C@H](CO)NC(=O)[C@H](Cc2ccc(O)cc2)NC1=O [Example I1, Example B2 labelled with ^68Ga, metal not drawn]
Radiochemical purity by radio-HPLC, stability in solution, 4 h [5]: 97.2%

Molecule: COCCOCCOCCOCCOCCOCCOCCOCCOCCOCCOCCOCCC(=O)N[C@H]1CCCC(=O)NC[C@@H](C(=O)N(C)[C@@H](Cc2ccc(F)cc2)C(=O)N[C@@H](CCCCNC(=O)CN2CCN(CC(=O)O)CCN(CC(=O)O)CCN(CC(=O)O)CC2)C(N)=O)N(C)C(=O)[C@H](C2CC2)NC(=O)[C@H](Cc2c[nH]c3ccccc23)NC(=O)[C@H](Cc2c[nH]c3ccc(O)cc23)NC(=O)[C@H](CCCCNC(C)=O)N(C)C(=O)[C@H](CCc2ccccc2)N(C)C(=O)[C@H](CO)NC(=O)[C@H](Cc2ccc(O)cc2)NC1=O [Example H1, Example B2 labelled with ^177Lu, metal not drawn]
tumor/normal tissue ratios [6]: favorable tumor/normal tissue ratios

Next, values leading:

Kd [7]: 5300 nM
Molecule: H-CYS[NMehPhe][NMeS][Trp(5-OH)]W[cProG][NMeC][NMePhe(4-F)]-NH2 (disulfide 1-9) [Example A54]

IC50 [8]: 9820 nM
Molecule: Ac-[Aad]YS[NMehPhe][MeKAc][Trp(5-OH)]A[CproG][NMeDap][NMePhe(4-F)]K(DOTA)-NH2 (lactam 1-9; reading uncertain; also: DOTA complexed with 175Lu) [Example C32]

IC50 [9]: 17 nM
IC50 [10]: 4.2 nM
Kd [11]: 11 nM
Kd [12]: 5.1 nM
Molecule: Ac-EY[Dap](DOTA)[NMehPhe][NMeK](Ac)[Trp(5-OH)]W[aThr][NMeDap][NMePhe(4-F)]K(X4)-NH2 (lactam 1-9; also: DOTA complexed with 175Lu) [Example C26]
